4 molecules from patent US20130195874A1 (ADRENOMED, published 2013) can be followed below.

Where two headings read alike, the source gives them in different places.

The labels stand for the following.
B1: NT-H (antibody, V domains shown)
VH: QVQLQQSGAELMKPGASVKISCKATGYTFSRYWIEWVKQRPGHGLEWIGEILPGSGSTNYNEKFKGKATITADTSSNTAYMQLSSLTSEDSAVYYCTEGYEYDGFDYWGQGTTLTVSS
VL: DVLLSQTPLSLPVSLGDQATISCRSSQSIVYSNGNTYLEWYLQKPGQSPKLLIYRVSNRFSGVPDRFSGSGSGTDFTLKISRVEAEDLGVYYCFQGSHIPYTFGGGTKLEIK
notes: also called NT-H antibody; antibody NT-H
B2: mouse adrenomedullin (mADM 1-50) (peptide)
peptide: YRQSMNQGSRSNGCRFGTCTFQKLAHQIYQLTDKDKDGMAPRNKISPQGYNH
B3: human adrenomedullin (hADM 1-52) (peptide)
peptide: YRQSMNNFQGLRSFGCRFGTCTVQKLAHQIYQFTDKDKDNVAPRSKISPQGY

For test [1], the target named is ADM (human or mouse not stated for this entry). Briefly: cell-based or functional assay.
In test [2] the target is B3. As to the kind of experiment: SPR (Biacore 2000), antibody captured via anti-mouse Fc, Adrenomedullin in solution. The protocol: Reversible immobilization of the antibodies was performed using an anti-mouse Fc antibody covalently coupled in high density to a CM5 sensor surface according to the manufacturer's instructions (mouse antibody capture kit; GE Healthcare). (Lorenz et al.,” Functional Antibodies Targeting IsaA of Staphylococcus aureus Augment Host Immune Response and Open New Perspectives for Antibacterial Therapy”; Antimicrob Agents Chemother. 2011 January; 55(1): 165-173.)

The target of test [3] is B3. Briefly: cell-based or functional assay.
For test [4], the target named is B3. As to the kind of experiment: cell-based or functional assay.
In test [5] the target is T1, human recombinant adrenomedullin receptor (CRLR+RAMP3) (human).
T1 chain: B3 peptide
As to the kind of experiment: cell-based or functional assay.

In test [6] the target is T1, human recombinant adrenomedullin …. As to the kind of experiment: cell-based or functional assay.

Molecule Non specific mouse IgG (antibody) gave a Maximal inhibition of ADM bioactivity (ADM-Bioassay) (%) in test [1] of 0%. With B1, the affinity in test [2], expressed as Kd, was 5.9 nM. For the same molecule, the “stability of hADM in human citrate plasma with NT-H against hADM alone” value in test [3] is 2.3 fold. The “IC50 (read off the curve)” value in test [4] was around 2 µg/mL. Turning to B2, the EC50 (read off the curve) – broadly, the midpoint of the concentration-response curve – in test [5] is around 0.08 nM. Take B3: in test [6], the “EC50 (read off the curve)” value is around 1 nM.
